For the assay, the target named is human HLA-DR on cells (DRβ1 allele not stated) (human). Nature of the assay: cell-based or functional assay.

Two molecules from patent publication US20050208048A1 can be followed below.

B1: murine/human chimeric DN1924 HLA-DR-specific monoclonal antibody (antibody, human IgG2, kappa)
heavy: EVKLLESGGGLVQPGGSLKLSCAASGFDFSRYWMSWVRQAPGKGLEWIGEINPDSSTINYTPSLKDKFIISRDNAKNTLYLQMSKVRSEDTALYYCARQPYYYGSSYWYFDVWGAGTTVTVSSAASTKGPSVFPLAPCSRSTSESTAALGCLVKDYFPEPVTVSWNSGALTSGVHTFPAVLQSSGLYSLSSVVTVTSSNFGTQTYTCNVDHKPSNTKVDKTVERKCCVECPPCPAPPAAAPSVFLFPPKPKDTLMISRTPEVTCVVVDVSHEDPEVQFNWYVDGMEVHNAKTKPREEQFNSTFRVVSVLTVVHQDWLNGKEYKCKVSNKGLPAPIEKTISKTKGQPREPQVYTLPPSREEMTKNQVSLTCLVKGFYPSDIAVEWESNGQPENNYKTTPPMLDSDGSFFLYSKLTVDKSRWQQGNVFSCSVMHEALHNHYTQKSLSLSPGK
light: ETTVTQSPASLSMAIGEKVTIRCITSTDIDDDMNWYQQKPGEPPKLLISEGNTLRPGVPSRFSSSGYGTDFVFTIENMLSEDVADYYLQSDNLPYTFGGGTKLEIKTVAAPSVFIFPPSDEQLKSGTASVVCLLNNFYPREAKVQWKVDNALQSGNSQESVTEQDSKDSTYSLSSTLTLSKADYEKHKVYACEVTHQGLSSPVTKSFNRGEC
The molecule B1 showed a % Annexin V Propidium Iodide Positive, antibody at 5 µg/ml, with Z-VAD-fmk of 52.7% and a % Annexin V Propidium Iodide Positive, antibody at 5 µg/ml, without Z-VAD-fmk of 57.4%.

B2: HLA-DR-specific monoclonal antibody L243 (antibody, from another filing, V domains shown)
VH: QIQLVQSGPELKKPGETVKISCKASGFTFTNYGMNWVKQAPGKGLKWMGWINTYTREPTYADDFKGRFAFSLETSASTAYLQINNLKNEDTAKYFCARDITAVVPTGFDYWGQGTTLTVSS
VL: DIQMTQSPASLSVSVGETVTITCRASENIYSNLAWYRQKQGKSPQLLVFAASNLADGVPSRFSGSGSGTQYSLKINSLQSEDFGDYYCQHFWTTPWAFGGGTNLEIKR
B2 returned a suppression of SEB-triggered T cell proliferation ([3H]thymidine) of 70%.
